This is an account of results in PMC12108577.

Assay [1] concerns the target CXCR2 on THP-1 cells (human (endogenous in THP-1)) (UniProt P25025). Kind of assay: flow cytometry on cells; THP-1 cells incubated on ice with purified proteins for 30 min; bound protein detected with a fluorophore-conjugated anti-His tag antibody; FACS buffer (PBS, 1% FBS, 150 μM CaCl2); Fc receptors blocked with Human SeroBlock; single dose and a range of concentrations. (In flow cytometry, cells or beads pass a laser one at a time.)

The target in a further assay is CXCL1-Fc fusion protein (UniProt P09341). Description: SDS-PAGE under reducing and non-reducing conditions; purified proteins separated under reducing and non-reducing conditions, Coomassie Blue staining.
The target in a further assay is CXCR2 on THP-1 cells (UniProt P25025). Kind of assay: flow cytometry on cells. The conditions noted are these: THP-1 cells (CXCR2+), FITC-conjugated anti-6X His antibody.
Assay [2] has as its target CXCR2 on THP-1 cells (human (endogenous in THP-1)) (UniProt P25025).
In a further assay the target is CXCL5-Fc fusion protein (UniProt P42830). Description: SDS-PAGE under reducing and non-reducing conditions; purified proteins separated under reducing and non-reducing conditions, Coomassie Blue staining.
The mark [3] stands for this setting: n = 3, parent: est. 100000, read off a plot.

Several values for one entry are separate records, joined by “and”; a condition that tells them apart may be missing. Equal values may be shown once.

Sequence of CXCL1^1-Fc^2 (P09341 whole entry, looked up, tested part not stated): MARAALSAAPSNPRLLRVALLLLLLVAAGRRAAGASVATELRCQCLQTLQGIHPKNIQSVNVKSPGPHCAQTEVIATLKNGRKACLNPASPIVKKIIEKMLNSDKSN
Sequence of CXCL1^1-Fc^1 (P09341 whole entry): as the sequence (P09341 whole entry, looked up, tested part not stated) above

A word on the stoichiometry N: it is the number of molecules, sites or subunits per partner or assembly. On to “CXCL1-Fc fusion protein (from UniProt P09341 35-107)”, for which, in assay [1], the fold higher mean fluorescence intensity per cell than CXCL1^1-Fc^2 or CXCL1^1-Fc^1 is 3 fold and 4 fold. Moreover, the stoichiometry N with CXCL1-Fc fusion protein stood at 2.

Turning to “CXCL1-Fc fusion protein (from UniProt P09341) CXCL1-Fc chain:T366Y; Fc chain:Y407T”, the response amounted to 19000 MFI in the assay with CXCR2 on THP-1 cells (setting [3]) and 98.5% with CXCR2 on THP-1 cells (parent: 99.9).

For “CXCL1-Fc fusion protein (from UniProt P09341) T366Y”, the response in the assay with CXCR2 on THP-1 cells (setting [3]) was 22000 MFI; with CXCR2 on THP-1 cells (parent: 99.9) it was 97.9%.

Regarding “CXCL1^1-Fc^1 (from UniProt P09341 35-107) (Fc fusion)”, the IC50 of inhibition of THP-1 cell migration toward PDAC conditioned medium (Boyden chamber) in assay [2] was determined as 211 nM.

Take “CXCL1^1-Fc^2 (from UniProt P09341 35-107) (Fc fusion)”: the IC50 of inhibition of THP-1 cell migration toward PDAC conditioned medium (Boyden chamber) in assay [2] was 28 nM.

“CXCL5-Fc fusion protein (from UniProt P42830 37-114)” yielded a stoichiometry N with CXCL5-Fc fusion protein of 2.
